The chains are these.
B1: 40769p2.1.E8 scFv-Fc (scFv, part only; not given: Linker, domain order, Fc, V domains shown, not shown: another chain or arm of the molecule; a dimerising Fc or GST; small tags and cut ends)
VH: EVQLLESGGGLVQPGGSLRLSCTGFGFTFTDARMSWVRQAPGKGLEWVADISSYGDNTYYADSVKGRFTISRDNSANTLYVQMNSLRAEDTAVYYCAKRMEREVMTIKLDYHAMDVWGQGTTVTVSS
VL: QSVLTQTPSVSGTPGQRVTISCSGVFNIRNYVSWYQQLPGTAPKLLIFKDDQRPSGVPDRFSGSRSGTSASLAISGLQSEDEADYYCAAWDIFLNVWVFGGGTKLTVL
B2: 40769p2.1.E5 scFv-Fc (scFv, part only; not given: Linker, domain order, Fc, V domains shown, not shown: another chain or arm of the molecule; a dimerising Fc or GST; small tags and cut ends)
VH: EVQLLESGGGLVQPGGSLRLSCTASAHIFKYNWMSWVRQAPGKGLEWVSSINSDGTITYYTDSVKGRFTISRDNSKNTLYLQMNSLRAEDTAVYYCAKDNWNDYAIDVWGQGTTVTVSS
VL: QSVLTQPPSASGTPGQRVTISCSGSRSDIRNNYVSWYQQLPGTAPKLLIYSNGQRPSGVPDRFSGSKSGTSASLAISGLQSEDEADYYCAIWDDSLNAWVFGGGTKLTVL
B3: 40769p2.2.G3 scFv-Fc (scFv, part only; not given: Linker, domain order, Fc, V domains shown, not shown: another chain or arm of the molecule; a dimerising Fc or GST; small tags and cut ends)
VH: EVQLLESGGGLVQPGGSLRLSCTASGITFSRFNMFWVRQAPGKGLEFVASIRDDGSWTYYADSVKGQFTISRDNSKNTLYLQMNSLRAEDTAVYYCAKDYSSKDFIYHYVMDVWGQGTTVTVSS
VL: QSVLTQPPSASGTPGQRVTISCSGRNSNIGNNVVNWYQQLPGTAPKLLIYRNQERPSGVPDRFSGSKSGTSASLAISGLQSEDEADYYCASWDDSLNAWVFGRGTKLTVL
B4: 40769p2.1.C1 scFv-Fc (scFv, part only; not given: Linker, domain order, Fc, V domains shown, not shown: another chain or arm of the molecule; a dimerising Fc or GST; small tags and cut ends)
VH: EVQLLESGGGLVQPGGSLRLSCAASGFSFSDYWMNWVRQAPGKGLEWVSTISSGGNMIYYADSVKGRFTISRDNSKNTLYLRMNSLRAEDTAVYYCAKDNWNDYYGMDVWGQGTTVTVSS
VL: QSVLTQPPSASGTPGQRVTISCSGSSSNIRDNYVYWYQQVPGTAPKLLIYKDDQRPSGVPDRFSGSKSGSSASLAISGLQSEDEADYYCATWDGSLNARVFGGGTKLTVL
B5: 40769p2.2.H4 scFv-Fc (scFv, part only; not given: Linker, domain order, Fc, V domains shown, not shown: another chain or arm of the molecule; a dimerising Fc or GST; small tags and cut ends)
VH: B4 VH with S28D, D31S, N56S, M57I, R67Q, R82Q
VL: B4 VL with L4P, S70T
B6: 40769p2.1.E1 scFv-Fc (scFv, part only; not given: Linker, domain order, Fc, V domains shown, not shown: another chain or arm of the molecule; a dimerising Fc or GST; small tags and cut ends)
VH: EVQLLESGGGLIQPGGSLRLSCTASGFDFSSYGMHWVRQAPGKGLEWVAIISDSGGTTYYGDSVKGRFTISRDNSKSTLYLQMNSLRAEDTALYYCASYIMDVWGQGTTVTVSS
VL: QSVLTQPPSASGTPEQRVTISCSGSNSNVGDNAVYWYQQLPGTAPKLLFYGTNRRPSGVPDRFSGSKSGTSASLAISGLQSEDEADYYCAAWDDSLNAWVFGGGTKLTVL
B7: 40769p2.1.G4 scFv-Fc (scFv, part only; not given: Linker, domain order, Fc, V domains shown, not shown: another chain or arm of the molecule; a dimerising Fc or GST; small tags and cut ends)
VH: EVQLLESGGGLVQPGGSLRLSCAASGFTFTSHDMNWVRQAPGKGLEWVSTITTGGNTYYADSVKGRFTISRDNSKNTLYLQMTSLRAEDTAVYYCTKHYSMDVWGQGTTVTVSS
VL: B6 VL with E15G, N26T, G30V, D31F, T52K, N53S, R54Q, S95T, A98G
B8: 40769p2.1.H12 scFv-Fc (scFv, part only; not given: Linker, domain order, Fc, V domains shown, not shown: another chain or arm of the molecule; a dimerising Fc or GST; small tags and cut ends)
VH: B6 VH with A49G, G61A, S77N, T108I
VL: B6 VL with E15G, D31V, A33S, F49I, T52S, N53G, G65V, S95G
B9: 40769p2.2.D3 scFv-Fc (scFv, V domains shown)
VH: B6 VH with A49G, G61A, S77N, T108I
VL: B6 VL with E15G, D31V, A33S, F49I, T52S, N53G, G65V, D94G, S95G

This note sets out measurements from patent US20220306762A1.

Residue numbers refer to the chain shown, from its start.

The first test concerns the target Human CD38 on transiently transfected Expi293 cells (Origene SC321273) (human) (UniProt P28907). Description: flow cytometry, 10 ug/ml scFv-Fc, transfected Expi293 cells.
B1: the FACS percent gated stood at 75.7%.
As to B2, the FACS percent gated was found to be 76.3%.
The molecule B3 had an FACS percent gated of 92.1%.
The same measure, in the same setting: the result for B4 reads 74.9%; that for B5, 92.5%; that for B6, 75.4%.
As to B7, the FACS percent gated was determined as 77%.
For the molecule B8, the FACS percent gated came out at 77.1%.

The target of a further test is Murine CD38 on transiently transfected Expi293 cells (Origene MC208001) (murine) (UniProt P56528). The description is as above.
The molecule B1 registered an FACS percent gated of 1.99%.
In turn, B2 displayed an FACS percent gated of 3.13%.
B3 displayed an FACS percent gated of 1.46%.
B5 displayed an FACS percent gated of 1.43%.
On the same count and under the same terms, the result for B6 reads 23.7%; that for B7, 42.4%.
B8 yielded an FACS percent gated of 22.9%.

The next test concerns the target His-tagged mouse CD38 (ACRO Biosystems CD8-M5223) (mouse) (UniProt P56528). As to the kind of experiment: ELISA, 1 ug/ml scFv-Fc, coated His-tagged CD38. Background: ELISA stands for enzyme-linked immunosorbent assay.
In turn, B1 registered an ELISA signal of 0.046.
The same measure, in the same setting: the result for B2 reads 0.045.
B3 registered an ELISA signal of 0.044.
On to B4, for which the ELISA signal was found to be 0.048.
As to B5, the ELISA signal was 0.045.
In turn, B6 returned an ELISA signal of 1.53.
As for B7, the ELISA signal is 2.1.
Turning to B9, the ELISA signal was determined as 0.044.
For the molecule B8, the ELISA signal amounted to 1.37.

A further test concerns the target His-tagged cynomolgus monkey CD38 (ACRO Biosystems, CD8-05223 [sic]) (cynomolgus monkey) (UniProt Q5VAN0). As to the kind of experiment: ELISA, 1 ug/ml scFv-Fc, coated His-tagged CD38.
Molecule B1 yielded an ELISA signal of 2.16.
Molecule B2 displayed an ELISA signal of 2.1.
The same measure, in the same setting: as for B3, the figure is 1.46.
The molecule B4 came in with an ELISA signal of 2.35.
As to B5, the ELISA signal was determined as 1.47.
On to B6, for which the ELISA signal was found to be 2.04.
Regarding B7, the ELISA signal worked out at 2.31.
For the molecule B8, the ELISA signal was 2.29.

The target of the next test is His-tagged human CD38 (ACRO Biosystems CD8-H5224) (human) (UniProt P28907). Description: ELISA, 1 ug/ml scFv-Fc, coated His-tagged CD38.
The molecule B1 gave an ELISA signal of 1.79.
The molecule B2 had an ELISA signal of 1.96.
For B3, the ELISA signal stood at 1.7.
B4 had an ELISA signal of 2.42.
In turn, B5 came in with an ELISA signal of 1.67.
On the same count and under the same terms, the result for B6 reads 2.04; that for B7, 1.81; that for B8, 2.01.
